Data on one substance can be found in patent US20240132593A1.

As usually defined, the EC50 is the midpoint of the concentration-response curve. Low readings indicate greater potency, high ones weaker potency.

In one assay the target is 4.1-VISTA-ECD-Fc (human). Put plainly: ELISA on plate-bound VISTA-ECD-Fc. (In general: In an ELISA, binding on a coated surface is turned into a signal by an enzyme label.)
The target of assay [1] is 2.1C-VISTA-ECD-Fc (human). Put plainly: ELISA on plate-bound VISTA-ECD-Fc.
Chain of 2.1C-VISTA-ECD-Fc (human) (chain, as listed by the source): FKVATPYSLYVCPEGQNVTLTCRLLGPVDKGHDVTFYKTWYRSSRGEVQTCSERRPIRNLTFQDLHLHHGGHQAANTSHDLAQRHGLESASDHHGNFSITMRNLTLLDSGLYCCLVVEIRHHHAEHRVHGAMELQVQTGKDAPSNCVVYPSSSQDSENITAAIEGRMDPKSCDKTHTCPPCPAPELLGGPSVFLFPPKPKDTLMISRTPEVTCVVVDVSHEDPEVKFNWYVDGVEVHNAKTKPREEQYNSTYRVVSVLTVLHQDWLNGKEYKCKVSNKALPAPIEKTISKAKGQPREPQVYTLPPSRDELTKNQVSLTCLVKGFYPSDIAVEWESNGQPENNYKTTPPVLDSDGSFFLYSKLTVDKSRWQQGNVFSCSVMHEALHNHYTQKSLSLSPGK
The next assay concerns the target 5.1-VISTA-ECD-Fc (human). In words: ELISA on plate-bound VISTA-ECD-Fc.
The next assay concerns the target RFQ-VISTA-ECD-Fc (human). Put plainly: ELISA, 10 ug/mL antibody on plate-bound mutant VISTA-Fc.

Chain of 4.1-VISTA-ECD-Fc (human) (chain, as listed by the source): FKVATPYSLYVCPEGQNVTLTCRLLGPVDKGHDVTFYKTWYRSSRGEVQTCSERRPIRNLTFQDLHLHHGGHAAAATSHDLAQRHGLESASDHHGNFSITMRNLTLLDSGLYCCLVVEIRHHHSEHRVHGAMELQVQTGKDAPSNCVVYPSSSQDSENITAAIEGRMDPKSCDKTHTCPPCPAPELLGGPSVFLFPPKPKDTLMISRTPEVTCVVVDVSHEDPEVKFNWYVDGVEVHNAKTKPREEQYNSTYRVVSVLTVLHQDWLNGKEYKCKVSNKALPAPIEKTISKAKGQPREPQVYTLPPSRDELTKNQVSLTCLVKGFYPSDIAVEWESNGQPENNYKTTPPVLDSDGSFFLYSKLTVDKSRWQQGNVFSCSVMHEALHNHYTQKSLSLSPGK
Chain of 5.1-VISTA-ECD-Fc (human) (chain, as listed by the source): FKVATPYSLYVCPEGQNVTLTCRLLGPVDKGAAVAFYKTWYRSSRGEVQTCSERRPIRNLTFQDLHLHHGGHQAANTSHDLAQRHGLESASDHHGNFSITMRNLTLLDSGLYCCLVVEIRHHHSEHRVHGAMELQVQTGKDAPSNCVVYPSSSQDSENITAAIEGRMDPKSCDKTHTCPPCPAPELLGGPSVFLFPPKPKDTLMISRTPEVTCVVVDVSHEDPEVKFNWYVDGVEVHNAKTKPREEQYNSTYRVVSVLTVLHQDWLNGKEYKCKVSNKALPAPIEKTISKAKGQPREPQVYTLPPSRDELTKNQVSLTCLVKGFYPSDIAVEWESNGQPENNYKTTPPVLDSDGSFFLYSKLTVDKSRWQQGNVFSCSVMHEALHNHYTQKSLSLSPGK
Chain of RFQ-VISTA-ECD-Fc (human) (chain, as listed by the source): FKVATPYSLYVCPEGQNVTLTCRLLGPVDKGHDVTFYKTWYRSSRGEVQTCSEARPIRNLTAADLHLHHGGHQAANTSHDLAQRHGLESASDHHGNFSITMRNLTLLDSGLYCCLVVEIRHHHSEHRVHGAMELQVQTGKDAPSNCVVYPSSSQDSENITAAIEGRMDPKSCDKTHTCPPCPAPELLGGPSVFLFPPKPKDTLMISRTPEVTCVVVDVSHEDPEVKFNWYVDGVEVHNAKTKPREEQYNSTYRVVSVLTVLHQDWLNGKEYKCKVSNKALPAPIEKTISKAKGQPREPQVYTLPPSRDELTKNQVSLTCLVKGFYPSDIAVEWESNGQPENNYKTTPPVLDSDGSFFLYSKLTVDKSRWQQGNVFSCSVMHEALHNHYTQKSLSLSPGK

For the substance IgG1 (antibody), the EC50 (with 4.1-VISTA-ECD-Fc (human); in assay [1]; in the assay with 5.1-VISTA-ECD-Fc (human)) was 100 µg/mL each time. Moreover, in the assay with RFQ-VISTA-ECD-Fc (human), the ELISA Abs 450 nm was 0.019 Abs 450 nm.
